Measured values reported in the supplement of paper PMC10724198.

Tests used:
Saccharomyces cerevisiae [1] = assay: protein stability index of tFT-peptide fusion in wild type (PSI (0-1 scale)); higher = more stable (slower turnover); settings: genetic background: wild type
Saccharomyces cerevisiae [2] = assay: protein stability index of tFT-peptide fusion in deletion strain of DOA10 (PSI (0-1 scale)); higher = more stable (slower turnover)
Description: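 MPS profiling in S. cerevisiae of two library types built from selected 12-aa C-degron peptides (IN1, IN2, LN1, LN3, VN2, R1-R5, W1-W3, Atg1 and Rpa12 C-termini): saturation mutagenesis libraries and C-terminal +1 capping libraries (13 aa). Each peptide is fused to the C-terminus of a sfGFP-mCherry timer, after a GGGS linker. Cells are FACS-sorted into 8 mCherry/sfGFP bins and sequenced. PSI runs from 0 (unstable) to 1 (stable), measured once in wild type and in the das1Δ or doa10Δ background.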

Saccharomyces cerevisiae [3] = assay: protein stability index of tFT-peptide fusion in deletion strain of DAS1 (PSI (0-1 scale)); higher = more stable (slower turnover)
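Wherever protein stability index of tFT-peptide fusion in deletion strain of DAS1 is given: PSI is a weighted mean of each variant's read distribution over the sorted stability bins, computed only for variants having over 10 reads in total.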
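Wherever protein stability index of tFT-peptide fusion in deletion strain of DOA10 is given: PSI per variant is the weighted mean of its sequencing read distribution over the sorted stability bins, counting only variants with over 10 reads summed across bins.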
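Wherever protein stability index of tFT-peptide fusion in wild type is given: PSI derived as read-weighted mean over the 8 sorting bins, only variants exceeding 10 total reads kept, mCherry placed adjacent to the peptide and sfGFP distal.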

## AATLPMCPLLLR
Saccharomyces cerevisiae [1]
  protein stability index: 0.377
Saccharomyces cerevisiae [2]
  protein stability index: 0.684

## AIDLPMCPLLLR
Saccharomyces cerevisiae [1]
  protein stability index: 0.319
Saccharomyces cerevisiae [2]
  protein stability index: 0.651

## AIQLPMCPLLLR
Saccharomyces cerevisiae [1]
  protein stability index: 0.213
Saccharomyces cerevisiae [2]
  protein stability index: 0.649

## AITLEMCPLLLR
Saccharomyces cerevisiae [1]
  protein stability index: 0.372
Saccharomyces cerevisiae [2]
  protein stability index: 0.667

## AITLHMCPLLLR
Saccharomyces cerevisiae [1]
  protein stability index: 0.271
Saccharomyces cerevisiae [2]
  protein stability index: 0.62

## AITLPCCPLLLR
Saccharomyces cerevisiae [1]
  protein stability index: 0.236
Saccharomyces cerevisiae [2]
  protein stability index: 0.659

## AITLPMCNLLLR
Saccharomyces cerevisiae [1]
  protein stability index: 0.29
Saccharomyces cerevisiae [2]
  protein stability index: 0.683

## AITLPMCPFLLR
Saccharomyces cerevisiae [1]
  protein stability index: 0.624
Saccharomyces cerevisiae [2]
  protein stability index: 0.661

## AITLPMCPHLLR
Saccharomyces cerevisiae [1]
  protein stability index: 0.645
Saccharomyces cerevisiae [2]
  protein stability index: 0.687

## AITLPMCPLALR
Saccharomyces cerevisiae [1]
  protein stability index: 0.577
Saccharomyces cerevisiae [2]
  protein stability index: 0.643

## AITLPMCPLELR
Saccharomyces cerevisiae [1]
  protein stability index: 0.641
Saccharomyces cerevisiae [2]
  protein stability index: 0.682

## AITLPMCPLLCR
Saccharomyces cerevisiae [1]
  protein stability index: 0.238
Saccharomyces cerevisiae [2]
  protein stability index: 0.265

## AITLPMCPLLIR
Saccharomyces cerevisiae [1]
  protein stability index: 0.219
Saccharomyces cerevisiae [2]
  protein stability index: 0.427

## AITLPMCPLLLQ
Saccharomyces cerevisiae [1]
  protein stability index: 0.567
Saccharomyces cerevisiae [2]
  protein stability index: 0.654

## AITLPMCPLLLRG
Saccharomyces cerevisiae [1]
  protein stability index: 0.31
Saccharomyces cerevisiae [2]
  protein stability index: 0.55

## AITLPMCPLLLW
Saccharomyces cerevisiae [1]
  protein stability index: 0.436
Saccharomyces cerevisiae [2]
  protein stability index: 0.646

## AITLPMCPLLLY
Saccharomyces cerevisiae [1]
  protein stability index: 0.404
Saccharomyces cerevisiae [2]
  protein stability index: 0.517

## AITLPMCPLLNR
Saccharomyces cerevisiae [1]
  protein stability index: 0.644
Saccharomyces cerevisiae [2]
  protein stability index: 0.671

## AIWLPMCPLLLR
Saccharomyces cerevisiae [1]
  protein stability index: 0.224
Saccharomyces cerevisiae [2]
  protein stability index: 0.657

## CAVSLPILLFFR
Saccharomyces cerevisiae [1]
  protein stability index: 0.0547
Saccharomyces cerevisiae [2]
  protein stability index: 0.627

## CLESLPILLFFR
Saccharomyces cerevisiae [1]
  protein stability index: 0.192
Saccharomyces cerevisiae [2]
  protein stability index: 0.65

## CLGSLPILLFFR
Saccharomyces cerevisiae [1]
  protein stability index: 0.0966
Saccharomyces cerevisiae [2]
  protein stability index: 0.628

## CLMSLPILLFFR
Saccharomyces cerevisiae [1]
  protein stability index: 0.0514
Saccharomyces cerevisiae [2]
  protein stability index: 0.591

## CLVDLPILLFFR
Saccharomyces cerevisiae [1]
  protein stability index: 0.0636
Saccharomyces cerevisiae [2]
  protein stability index: 0.635

## CLVILPILLFFR
Saccharomyces cerevisiae [1]
  protein stability index: 0.0975
Saccharomyces cerevisiae [2]
  protein stability index: 0.456

## CLVSDPILLFFR
Saccharomyces cerevisiae [1]
  protein stability index: 0.589
Saccharomyces cerevisiae [2]
  protein stability index: 0.656

## CLVSEPILLFFR
Saccharomyces cerevisiae [1]
  protein stability index: 0.499
Saccharomyces cerevisiae [2]
  protein stability index: 0.643

## CLVSLPIGLFFR
Saccharomyces cerevisiae [1]
  protein stability index: 0.101
Saccharomyces cerevisiae [2]
  protein stability index: 0.674

## CLVSLPILEFFR
Saccharomyces cerevisiae [1]
  protein stability index: 0.637
Saccharomyces cerevisiae [2]
  protein stability index: 0.672

## CLVSLPILLCFR
Saccharomyces cerevisiae [1]
  protein stability index: 0.0846
Saccharomyces cerevisiae [2]
  protein stability index: 0.564

## RLIQPLFVQFLN
Saccharomyces cerevisiae [1]
  protein stability index: 0.0762
Saccharomyces cerevisiae [3]
  protein stability index: 0.621

## RLIQPLPDQFLN
Saccharomyces cerevisiae [1]
  protein stability index: 0.61
Saccharomyces cerevisiae [3]
  protein stability index: 0.631

## RLIQPLPVCFLN
Saccharomyces cerevisiae [1]
  protein stability index: 0.0773
Saccharomyces cerevisiae [3]
  protein stability index: 0.582

## RLIQPLPVGFLN
Saccharomyces cerevisiae [1]
  protein stability index: 0.322
Saccharomyces cerevisiae [3]
  protein stability index: 0.587

## RLIQPLPVQFKN
Saccharomyces cerevisiae [1]
  protein stability index: 0.618
Saccharomyces cerevisiae [3]
  protein stability index: 0.648

## RLIQPLPVQFLE
Saccharomyces cerevisiae [1]
  protein stability index: 0.633
Saccharomyces cerevisiae [3]
  protein stability index: 0.743

## RLIQPLPVQFLNC
Saccharomyces cerevisiae [1]
  protein stability index: 0.486
Saccharomyces cerevisiae [3]
  protein stability index: 0.635

## RLIQPLPVQFLNI
Saccharomyces cerevisiae [1]
  protein stability index: 0.627
Saccharomyces cerevisiae [3]
  protein stability index: 0.644

## RLIQPLPVQFLNL
Saccharomyces cerevisiae [1]
  protein stability index: 0.636
Saccharomyces cerevisiae [3]
  protein stability index: 0.656

## RLIQPLPVQFLNS
Saccharomyces cerevisiae [1]
  protein stability index: 0.385
Saccharomyces cerevisiae [3]
  protein stability index: 0.658

## RLIQPLPVQFLNT
Saccharomyces cerevisiae [1]
  protein stability index: 0.614
Saccharomyces cerevisiae [3]
  protein stability index: 0.639

## RLIQPLPVQFLNV
Saccharomyces cerevisiae [1]
  protein stability index: 0.599
Saccharomyces cerevisiae [3]
  protein stability index: 0.621

## RLIQPLPVQFLT
Saccharomyces cerevisiae [1]
  protein stability index: 0.223
Saccharomyces cerevisiae [3]
  protein stability index: 0.59

## RLIQPLPVQFQN
Saccharomyces cerevisiae [1]
  protein stability index: 0.366
Saccharomyces cerevisiae [3]
  protein stability index: 0.548

## RLIQPLPVQNLN
Saccharomyces cerevisiae [1]
  protein stability index: 0.447
Saccharomyces cerevisiae [3]
  protein stability index: 0.645

## RLIQPLPVQPLN
Saccharomyces cerevisiae [1]
  protein stability index: 0.587
Saccharomyces cerevisiae [3]
  protein stability index: 0.579

## RLIQPLPYQFLN
Saccharomyces cerevisiae [1]
  protein stability index: 0.0818
Saccharomyces cerevisiae [3]
  protein stability index: 0.621

## RLIQPLRVQFLN
Saccharomyces cerevisiae [1]
  protein stability index: 0.06
Saccharomyces cerevisiae [3]
  protein stability index: 0.593

## RLIQPLWVQFLN
Saccharomyces cerevisiae [1]
  protein stability index: 0.0634
Saccharomyces cerevisiae [3]
  protein stability index: 0.569

## RLIQPMPVQFLN
Saccharomyces cerevisiae [1]
  protein stability index: 0.0562
Saccharomyces cerevisiae [3]
  protein stability index: 0.607

## RLIQPPPVQFLN
Saccharomyces cerevisiae [1]
  protein stability index: 0.06
Saccharomyces cerevisiae [3]
  protein stability index: 0.641

## RLIQPTPVQFLN
Saccharomyces cerevisiae [1]
  protein stability index: 0.192
Saccharomyces cerevisiae [3]
  protein stability index: 0.563

## RLIQRLPVQFLN
Saccharomyces cerevisiae [1]
  protein stability index: 0.0385
Saccharomyces cerevisiae [3]
  protein stability index: 0.646

## RLIQSLPVQFLN
Saccharomyces cerevisiae [1]
  protein stability index: 0.0478
Saccharomyces cerevisiae [3]
  protein stability index: 0.574

## RLIQVLPVQFLN
Saccharomyces cerevisiae [1]
  protein stability index: 0.0583
Saccharomyces cerevisiae [3]
  protein stability index: 0.611

## RLISPLPVQFLN
Saccharomyces cerevisiae [1]
  protein stability index: 0.0608
Saccharomyces cerevisiae [3]
  protein stability index: 0.622

## RLIYPLPVQFLN
Saccharomyces cerevisiae [1]
  protein stability index: 0.0272
Saccharomyces cerevisiae [3]
  protein stability index: 0.58

## RLWQPLPVQFLN
Saccharomyces cerevisiae [1]
  protein stability index: 0.069
Saccharomyces cerevisiae [3]
  protein stability index: 0.608

## RYIQPLPVQFLN
Saccharomyces cerevisiae [1]
  protein stability index: 0.0617
Saccharomyces cerevisiae [3]
  protein stability index: 0.564

## VAGAVGGWRLVG
Saccharomyces cerevisiae [1]
  protein stability index: 0.142
Saccharomyces cerevisiae [3]
  protein stability index: 0.681

## VCGAVGGWRLVG
Saccharomyces cerevisiae [1]
  protein stability index: 0.118
Saccharomyces cerevisiae [3]
  protein stability index: 0.686

## VIGAVGGWRLVG
Saccharomyces cerevisiae [1]
  protein stability index: 0.115
Saccharomyces cerevisiae [3]
  protein stability index: 0.689

## VRDAVGGWRLVG
Saccharomyces cerevisiae [1]
  protein stability index: 0.172
Saccharomyces cerevisiae [3]
  protein stability index: 0.654

## VRFAVGGWRLVG
Saccharomyces cerevisiae [1]
  protein stability index: 0.0977
Saccharomyces cerevisiae [3]
  protein stability index: 0.678

## VRGAFGGWRLVG
Saccharomyces cerevisiae [1]
  protein stability index: 0.144
Saccharomyces cerevisiae [3]
  protein stability index: 0.668

## VRGAHGGWRLVG
Saccharomyces cerevisiae [1]
  protein stability index: 0.146
Saccharomyces cerevisiae [3]
  protein stability index: 0.662

## VRGAMGGWRLVG
Saccharomyces cerevisiae [1]
  protein stability index: 0.202
Saccharomyces cerevisiae [3]
  protein stability index: 0.746

## VRGASGGWRLVG
Saccharomyces cerevisiae [1]
  protein stability index: 0.172
Saccharomyces cerevisiae [3]
  protein stability index: 0.674

## VRGAVCGWRLVG
Saccharomyces cerevisiae [1]
  protein stability index: 0.125
Saccharomyces cerevisiae [3]
  protein stability index: 0.673

## VRGAVGGQRLVG
Saccharomyces cerevisiae [1]
  protein stability index: 0.643
Saccharomyces cerevisiae [3]
  protein stability index: 0.677

## VRGAVGGVRLVG
Saccharomyces cerevisiae [1]
  protein stability index: 0.645
Saccharomyces cerevisiae [3]
  protein stability index: 0.654

## VRGAVGGWCLVG
Saccharomyces cerevisiae [1]
  protein stability index: 0.441
Saccharomyces cerevisiae [3]
  protein stability index: 0.674

## VRGAVGGWGLVG
Saccharomyces cerevisiae [1]
  protein stability index: 0.28
Saccharomyces cerevisiae [3]
  protein stability index: 0.616

## VRGAVGGWPLVG
Saccharomyces cerevisiae [1]
  protein stability index: 0.596
Saccharomyces cerevisiae [3]
  protein stability index: 0.692

## VRGAVGGWREVG
Saccharomyces cerevisiae [1]
  protein stability index: 0.504
Saccharomyces cerevisiae [3]
  protein stability index: 0.654

## VRGAVGGWRLVGA
Saccharomyces cerevisiae [1]
  protein stability index: 0.524
Saccharomyces cerevisiae [3]
  protein stability index: 0.692

## VRGAVGGWRLVGD
Saccharomyces cerevisiae [1]
  protein stability index: 0.646
Saccharomyces cerevisiae [3]
  protein stability index: 0.694

## VRGAVGGWRLVGF
Saccharomyces cerevisiae [1]
  protein stability index: 0.666
Saccharomyces cerevisiae [3]
  protein stability index: 0.693

## VRGAVGGWRLVGY
Saccharomyces cerevisiae [1]
  protein stability index: 0.638
Saccharomyces cerevisiae [3]
  protein stability index: 0.682

## VRGAVGGWRLVK
Saccharomyces cerevisiae [1]
  protein stability index: 0.668
Saccharomyces cerevisiae [3]
  protein stability index: 0.689

## VRGAVGGWRQVG
Saccharomyces cerevisiae [1]
  protein stability index: 0.189
Saccharomyces cerevisiae [3]
  protein stability index: 0.677

## VRGAVGSWRLVG
Saccharomyces cerevisiae [1]
  protein stability index: 0.157
Saccharomyces cerevisiae [3]
  protein stability index: 0.68

## VRGGVGGWRLVG
Saccharomyces cerevisiae [1]
  protein stability index: 0.206
Saccharomyces cerevisiae [3]
  protein stability index: 0.683

## VRGSVGGWRLVG
Saccharomyces cerevisiae [1]
  protein stability index: 0.14
Saccharomyces cerevisiae [3]
  protein stability index: 0.681

## VRGYVGGWRLVG
Saccharomyces cerevisiae [1]
  protein stability index: 0.174
Saccharomyces cerevisiae [3]
  protein stability index: 0.69

## VRHAVGGWRLVG
Saccharomyces cerevisiae [1]
  protein stability index: 0.116
Saccharomyces cerevisiae [3]
  protein stability index: 0.671

## YDKRNHLIKLLN
Saccharomyces cerevisiae [1]
  protein stability index: 0.138
Saccharomyces cerevisiae [3]
  protein stability index: 0.581
